From publication PMC4119789 come the findings set out here.

The assay has as its target H3K4AK9me2 peptide. In words: ITC. For orientation: Isothermal titration calorimetry measures the heat released or taken up as one component is titrated into another.

B1: SAWADEE domain of atSHH1 (residues 125-258) (domain or fragment)
chain: ADLAFEAKSARDYAWYDVSSFLTYRVLRTGELEVRVRFSGFDNRHDEWVNVKTSVRERSIPVEPSECGRVNVGDLLLCFQEREDQALYCDGHVLNIKRGIHDHARCNCVFLVRYELDNTEESLGLERICRRPEE
In turn, B1 displayed a fold weaker affinity than for the H3K9me2 peptide of 30 fold.
